Source: article doi:10.1101/2020.01.22.914192, “CryoEM structures of human CMG - ATPγS - DNA and CMG - AND-1 complexes”

Biological target: CMG helicase (Cdc45-MCM2-7-GINS) (human, UniProt P49736;P25205;P33991;P33992;Q14566;P33993;O75419;Q14691;Q9Y248;Q9BRX5;Q9BRT9 …)
Experiment: cryoEM structure (3.29 A); ATPgS 100 uM; 5 mM Mg acetate; ATPgS/Mg2+ at MCM6, 4, 7; ADP at MCM2, 3; MCM5 site empty; Buffer S: 25 mM Hepes pH 7.5, 50 mM KCl, 5 mM Mg acetate, 2 mM DTT, 100 uM ATPgS; 4 uM fork DNA applied to StrepTrap-bound CMG, eluted with 15 mM desthiobiotin; binding temperature not stated (stored overnight at 4 C)
Details: protein: recombinant; tags: MCM4 N-terminal His8-TEV; Psf2 C-terminal TEV-2xStrepII; copies: 1;1;1;1;1;1;1;1;1;1;1; fork: 40 bp duplex, 30 nt 3' poly-dT tail (strand 1) and 30 nt 5' GC-rich tail (strand 2)

B1: fork DNA 70T/70GC (dsDNA)
DNA 1: CGTTTTACAACGTCGTGACTGGGCACTTGATCGGCCAACCTTTTTTTTTTTTTTTTTTTTTTTTTTTTTT
DNA 2: CAGGCAGGCAGGCAGGCAGGCAGGCAGGCAGGTTGGCCGATCAAGTGCCCAGTCACGACGTTGTAAAACG
B1: binds.
